Laboratory results taken from publication PMC5269673.

Legend:
[1] = target: Gramicidin A; test: single-channel recording in planar lipid bilayers; gA added to both compartments of a painted DOPC bilayer; conductive channel = gA dimer; 10 mmol/L HEPES, 1 mol/L KCl, pH 7.4, 23 ± 2 °C, -100 mV; without and with AEA (up to 3 umol/L) or 3 umol/L 2-AG
[2] = target: Gramicidin A; test: single-channel recording in planar lipid bilayers; gA added to both compartments of a painted DPhPC bilayer; conductive channel = gA dimer; 10 mmol/L HEPES, 1 mol/L KCl, pH 7.4, 23 ± 2 °C, -100 mV; without and with AEA

Substance: Gramicidin A (peptide)
- fold increase of channel appearance frequency f (f/f control = k1/k1,control) with 3 umol/L AEA over no AEA [1]: 7.2 fold
- fold increase of open channel lifetime tau (tau control/tau = k-1/k-1,control) with 3 umol/L AEA over no AEA [1]: 1.8 fold
- fold increase of channel appearance frequency f (f/f control = k1/k1,control) with 3 umol/L AEA over no AEA [2]: 4 fold
- fold increase of open channel lifetime tau (tau control/tau = k-1/k-1,control) with 3 umol/L AEA over no AEA [2]: 1.4 fold
